In US20090186824A1:
Where no end group is shown, it is not given here.

Molecular target: dipeptidyl peptidase IV (DPPIV) in plasma of ICR mouse blood (mouse), P28843
Test: cell-based or functional assay

Sequence of dipeptidyl peptidase IV (DPPIV) in plasma of ICR mouse blood (mouse), P28843 (P28843 37-760 limits assumed): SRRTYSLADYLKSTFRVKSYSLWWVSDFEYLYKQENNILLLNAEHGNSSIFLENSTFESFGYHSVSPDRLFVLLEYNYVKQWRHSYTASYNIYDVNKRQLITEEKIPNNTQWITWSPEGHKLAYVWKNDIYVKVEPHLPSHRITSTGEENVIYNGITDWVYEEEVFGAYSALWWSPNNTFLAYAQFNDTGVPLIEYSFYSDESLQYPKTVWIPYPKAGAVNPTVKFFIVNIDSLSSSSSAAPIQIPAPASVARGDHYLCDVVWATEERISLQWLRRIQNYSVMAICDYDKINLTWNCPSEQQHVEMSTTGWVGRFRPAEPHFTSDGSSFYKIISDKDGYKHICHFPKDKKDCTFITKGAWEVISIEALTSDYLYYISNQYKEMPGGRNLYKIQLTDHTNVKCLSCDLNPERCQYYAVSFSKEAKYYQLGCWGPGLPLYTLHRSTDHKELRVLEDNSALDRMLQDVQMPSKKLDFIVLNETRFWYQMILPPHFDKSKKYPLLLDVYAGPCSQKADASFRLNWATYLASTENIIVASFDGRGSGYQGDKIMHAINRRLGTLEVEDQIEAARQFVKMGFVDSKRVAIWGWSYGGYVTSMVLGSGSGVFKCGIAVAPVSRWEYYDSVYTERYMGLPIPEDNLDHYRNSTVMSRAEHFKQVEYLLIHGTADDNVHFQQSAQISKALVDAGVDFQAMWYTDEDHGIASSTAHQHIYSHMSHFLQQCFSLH

B1: SEQ ID NO 10 (peptide)
peptide: RIVPA-OH
% DPPIV Activity (Saline) (% relative to saline control): 51
